# Assay results reported in the nanobody polyreactivity screen of Harvey et al. (2022).
# Experiment: yeast display, Sf9 membrane polyspecificity reagent, FACS + sequencing; frameworks hold sequencing errors
# In short: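 Using colony PCR, genes from sorted yeast display clones were amplified, then sequenced on MiSeq at 2 × 250 and filtered by CDR length. The clones had been stained with 10% biotinylated, detergent-solubilized Sf9 membrane reagent for 1 hour at 4 °C and sorted by FACS into low and high (top ~1%) gates on anti-HA and streptavidin fluorescence. Polyreactivity labels come from the gate of origin.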
row,Sequence,polyreactivity (PSR sort gate)
1,QVQLVESGGCLVQAGGSLRLSCPASGSTIGKYAMGWYRQAPRKERELFATITVSGGNTNYADSVKGRITISRDNAKITVYLQMNSLKPEDTAVYYCAARKYVAGHKYIMKYWGQGTQVTVSS,low polyreactivity
2,QVQLVESGGCLVQAGGSLRLSCSASGRTFNWKAMGWYRPAPGKERELVAVITSSGTRTYYADSVKGRFTISRDNAKNTVSLQMNSLKPEDTAVYYCANGETYTGPNSRYGQWKKVYYWGQGTQVTVSS,low polyreactivity
3,QVQLVESGGCLVQAGGSLRLSSAASGFIFYYNAMGWYRQEPGKESELVATIRGSGGSTYYADSVKGRFTISRDNAKNTVYLQMNSLKPEDTAVYYCAASVQYRRLKKFYYWGQGTQVTVSS,high polyreactivity
4,QVQLVESGGCLVQAGGSLRLSSAASGITFYLYAMGWYRKAPGKVRELVATISRSGGSTYADSVKGRFTISRDNAKNTVYLQMHSMKPEDTAVYYCNADLLSTGFIAYDYWGQGTQVTVSS,low polyreactivity
5,QVQLVESGGCLVQAGGSLRLSSAPSGSTFPVNAMGWYRQAAGKERELVAAITYRDGDTYYADSVKGRFTISRDYAKNTVYLQMNSLKPEDTAVYYCNADVGRHGKNSHMDYWGHGTQVTVSS,low polyreactivity
6,QVQLVESGGCLVQAGGTLRLSCAASGFTFGNNGMGWYRQAPGKERELVATISWSGGSTDADSVKGRFTISRDNAKNTVYLQMNSLKPEDTAVSYCAARPRWYFFSYGRQDDGSWGQGTQVTVSS,low polyreactivity
7,QVQLVESGGCLVQAGGTLRLSCAASGFTIRSNAMGWYRQAPGKERELVADISHGGGTSYADSVKGRFTISRDNAKNTVYLQRNSLKPEDTAVYYCAADLSTYVNYWWEYYYWGQGSQVTVSS,low polyreactivity
8,QVQLVESGGCLVQAGGTLRLSCAASGSIFWAYAMGWYRQAPGKERELVAAISRGGTTTYADSVKGRFTISRDNAKNTVYLQMNSLKPEDTAVYYCARRAVYSKRRYDYWGQGTQVTVSS,low polyreactivity
9,QVQLVESGGCLVQAVGSLRLSCAASAFTFTQYGRGWYRQASGKEREFVATIRFSGDTTYYADSVKRRFTITRDHAKNTAYLQMNRLKPEDPAVYYCNADNRAFFVYPGSNRYDSWGQGTQVTVSS,low polyreactivity
10,QVQLVESGGCLVQEGGSLRLSCAASGFTFRWYTMGWYRQAPGKERELVASIRYGGGSTYYADSVKGRFTISRDNAKNTVYLQMNSLKPEDTAVYYCAAYVRTYRGYYWKAFDYWGQGTQVTVSS,high polyreactivity
11,QVQLVESGGCLVQSGGSLRLSCAASGIIISSYAMGWYRQAPGKERELVADIRSGGSTNYADSVKGRFTISRDNAKNTVYLQMNSLKPEDTAVSDCNADTFQWWDSAAVYVIVKYGYWGHGTQVTVSS,low polyreactivity
12,QVQLVESGGDLVQAGASLRLSCASSGRTFRHNALGRYRQAPGKERYLVATISNRGGTTYYADSVKGRFTISRDNAKNTVYLQMNSLKPEDTAVYYCAARVGVLGYVRYGYWGQGTQVTVSS,low polyreactivity
13,QVQLVESGGDLVQAGGSLRLSCAASGITFVYNAMGWYRQAPGKERELVAGITWSGSSTYYADSVKGRFTISRDNAKNTVYLQMNSLKPEDTAVYYCAAYLYDRTTRYTYYYWGQGTQVTVSS,high polyreactivity
14,QVQLVESGGDLVQAGGSLRLSCDASGRTCSANGMGSYRQSTGKERELVAAITRSGGITYYADSVKGRFTISRDNAKNTVYLQMNSLNPEDTADYYCAASVYSLSRRSWMDYWGQGTQVTVST,low polyreactivity
15,QVQLVESGGGEVQAGGSLRLICAASGRTFQLNAMGWYRQAPGKERELVAAISTRGGSTYYADSVKGRFTISRDNAKNTVYLQMISLKPEDTAVYYCAARVWTANYEMDLWGQGTQVTVSS,high polyreactivity
16,QVQLVESGGGFDQAGGSLRLSCAASGSIFFYYVMGWYRQAPGKERELVAVISSGGGSTYYADSVKGRFTISRDNAKNTVYLQMNSLKPEDTAVYYCAAGTYYKFYYWGQGTQVTVSS,high polyreactivity
17,QVQLVESGGGFFQAGGSLRLSCAASGSTFGYYTMGWYRQAPGKERELVAAISSGGSRTNYADSVKGRFTISRDNAKNTVYLQMNILKPEDTAVYYCARQSYGGTNRYYYWGQGTQVTVSS,high polyreactivity
18,QVQLVESGGGFVEAGGSLRLSCAASGSIFRSYAMGWYRQAPGKERELVAAISSGDSTNYADTVKRRFTISRDNAQNTGYLQMNSLKPEDTADYYCAADQVQYTGYTEYDWGQGTQVTVSS,low polyreactivity
19,QVQLVESGGGFVPAGGSLRLSCAASGSTFIPYAMGWYRQAPGKERELVAAISSGGRTYYADSVKGRFTISRDNAKNTVYLQMNSVKPEDTAGYYCASTTSPSSARYYYWGQGTQVTVSS,high polyreactivity
20,QVQLVESGGGFVQAGGSLLVSCAASGFTFRYSAMGWYRQAPGKERELVAAIDQNSGRTYYADSGKGRFTISRDNAKNTVYLQMNSLKPEDTAVYYCNVGYPKVPAGSYDYWGQGTQVTVSS,high polyreactivity
21,QVQLVESGGGFVQAGGSLRLICADSGRIFGRYAMGWYRQAPGKERELVAVISARGARTYYADSVKGRFTLSRDNAKNTDYLQMNSLKPEATEVYYCAVDQYATDDYWGQGTQVTVSS,high polyreactivity
22,QVQLVESGGGFVQAGGSLRLSCAACGITFNPNAMGWYRQAPGKERELVAAITANGGNTYYADSVKGRFTISRDNAKNTVYLQMNSLKPEDTAVYYCARRTRRSAGYGEYYYWGQGTQVTVSS,high polyreactivity

row,Sequence,polyreactivity (PSR sort gate)
1,QVQLVESGGGFVQAGGSLRLSCAASGFIFYQYAMGWYRQAPGKERELVAAISWGGGSTYYADSVKGRFTISRDNAKNTVYLQMNSLKQEDTAVYYCNTDSAPYYWLSDNYDSCGQGTQVTVSS,low polyreactivity
2,QVQLVESGGGFVQAGGSLRLSCAASGFTFFPYAMGWYRQAPGNEWELVAAISWSGGRTYYADSVKGRFTISRDNAKNTVYLHMNSLKPEDTAVYYCNARWRSGPRAYDYWGHGTQVTVSS,high polyreactivity
3,QVQLVESGGGFVQAGGSLRLSCAASGRIFAFYTMGWSRQAPGKEREFVAAISRSGGSTYYADSVKGRFTISRDNAKNTVYLQMNSLKPEDTAVYYCAKGGYSPKRVKYYDYWGQGTQVTVSS,low polyreactivity
4,QVQLVESGGGFVQAGGSLRLSCAASGRLFFIYAMGWYRQAPGKDRELVAAITGRGGRTYYADSVKGRFTISRDKPKNTVYLEMYSQKPEDTAVYYCAADSRDSYLFYYWGQGTQVTVST,high polyreactivity
5,QVQLVESGGGFVQAGGSLRLSCAASGRTFGHNDMGWYIQAPGKERELVATNSADGSTNYADSVKGRITISRDNEKKTVKLQMNSLKPEDTAVSYCAKDYQYVAYDYWGQGTQVTVSS,low polyreactivity
6,QVQLVESGGGFVQAGGSLRLSCAASGRTFIYNAMGWYRQAPGKERELVARISSGGGNTYYADSVKGRFTISRDNAKNPVYLQINSLKPEDTAVYYGAKGWRPSFSYYWGQGTQVTVSS,high polyreactivity
7,QVQLVESGGGFVQAGGSLRLSCAASGSIFSVNTMGWYRQAPGKERELVATIRTGDSTNYADSVTGRFTISRDNAKNTVYLQMNSLKPEDTAVDYCAAEWSSLNFDYWGQGTQVTVSS,low polyreactivity
8,QVQLVESGGGFVQAGGSLRLSCAASGSILRSYAMGWYRQAPGKERELVAVINGSGGRTYYADSVKGRFTISRDNAKNTVYLQMNSLKPEDTAVYYCNADPGGRYPRRGYAHEGDYWGQGTQVTVSS,low polyreactivity
9,QVQLVESGGGFVQAGGSLRLSCAASGSTFSHYTMGWYSQAPGNERELLAAINYGGASTYYADSVKGRFTISRDNAKNTVYLQMNSQKPEDTAVYYCAAANRPSEQDNYWGQGTQVTVSS,low polyreactivity
10,QVQLVESGGGFVQAGGSLRLSCAASGSTFYTYTLGWYRQAPGKERELVAAISSSGGDTYYADSVKGRFTISRDNAKNTVYLQMNSLKPEDTAVYYCAALGAFPSLEFDYWGQGTQVTVSS,low polyreactivity
11,QVQLVESGGGFVQAGGSLRLSCAATGSIFPQNAMGWYRQAPGKERELVASISSGGRTNYADSVKGRFTISRDYAKNTVYLQMNSLKPEDSAVYFCAKTRIRYKPLHFYYWGQGTQVTVSS,low polyreactivity
12,QVQLVESGGGFVQAGGSLRLSCASSGRIFYRNAMVWYRQAPGKESELVAAILGSGGRTYYADSVKGSFTISRDTAKNNVYLQMNSMKPEVTAVYYCAAYGYYVEHPRGLSGPYDDDYWGQGTQVTVSS,low polyreactivity
13,QVQLVESGGGFVQAGGSLRLSCASSGRTFRLYAMGWYRQAPGKERELVDVIRSGDSTNYADSVKGRFTISSDNAKNTVYLQMNSVKPEDTAVYYCAADVLYYYGKYDYWGQGTQVTVSS,high polyreactivity
14,QVQLVESGGGFVQAGGSLRLSSAASGRTFYFYTMLWYRQAPGKERELVAAISWSGGSTYYADSVKGRFTISRDNAKNTVYLQMNSLKPEDTAVYYCAASSPWDQSNDQFYYWGQGTQVTVSS,low polyreactivity
15,QVQLVESGGGFVQAGGSLRLSSAASGSTFYRYAMGWYRQAPGKEREFVAAISRSGGSTYYADSVKRRFTLSRDNAKNTVYLQMNSLKPEDTAVEYCNKYYWYPYGRAQDYGYWGQGTQVTVSS,high polyreactivity
16,QVQLVESGGGIDQAGGSLRLSCAATGLTFWLNPMGWYRQAPWKERELVAAIRYSGGGTYADSVKGRFTISRDNAKNTVSLQMNSLKQEVTAVYYCAALYNLGYPQFDYWGQGNQVTVSS,low polyreactivity
17,QVQLVESGGGILQAGGSLRLSCAASGSTFSYYAMGWYRQAPGKERELVAAISYSGGRTYYADSVKGRFTISRDNAKNTVYLQMNSLKPEDTAVYYCAASGVFDSTRGVYYWGQGTQVTVSS,high polyreactivity
18,QVQLVESGGGIVQAGGRLRLSCAASGFTFGKYAMGWYRQAPGKERELVAAISRSGGSTYYADSVKGRFTISRDNAKFTVYLPMNSLKPVDTAVYYCAAYHPIQEYDYWGQGTQVTGSS,high polyreactivity
19,QVQLVESGGGIVQAGGRLRLSCAASGSTFPSKAMGWYRQAPGKERELVAAISRGGTTNYADSVKGRFTISRDNAKNTVYLQMNSLKPEDTAVYYCAKVYKLYWYKAYRRDYWGQGTQVTVSS,high polyreactivity
20,QVQLVESGGGIVQAGGSHRLSCAASGRTFRYNAMGWYRQAPGKERELVAAISGRGSSTYYADSVKGRFTISRDNAKNTVYLQMNSLKPEDTAVYYCAALPASVRRPGWHDYWGQGTQVTVSS,high polyreactivity
21,QVQLVESGGGIVQAGGSLLLSCAASGSISFLYTMGWYRQAPGKERELVAAITGSTASTYYADSVKGRFTISRDNAKNTVYLQMNSLKPEDTAVYYCAAYWYAEGYWVSRDYWGQGTQVTVSS,low polyreactivity
